Test results as given in US20090118185A1 (UNIVERSITY OF ROCHESTER, published 2009).

Key:
[1] = system: 336(P1′-P3′)562 factor VIII mutant (procofactor)
[2] = system: 336(P4-P2)562 factor VIII mutant (procofactor)
[3] = system: 336(P4-P3′)562 factor VIII mutant (procofactor)
[4] = system: 562(P4-P2)336 factor VIII mutant (procofactor)
[5] = system: 562(P4-P3′)336 factor VIII mutant (procofactor)
[6] = target: T1, human activated protein C (human, UniProt P04070 43-197; P04070 212-461); test: cell-based or functional assay
T1 sequence (P04070 43-197, chain 1 of 2): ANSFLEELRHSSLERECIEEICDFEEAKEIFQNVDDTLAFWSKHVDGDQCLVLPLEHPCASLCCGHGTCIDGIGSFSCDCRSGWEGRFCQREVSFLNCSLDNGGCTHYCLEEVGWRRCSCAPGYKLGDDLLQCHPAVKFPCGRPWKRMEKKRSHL
T1 sequence (P04070 212-461, chain 2 of 2): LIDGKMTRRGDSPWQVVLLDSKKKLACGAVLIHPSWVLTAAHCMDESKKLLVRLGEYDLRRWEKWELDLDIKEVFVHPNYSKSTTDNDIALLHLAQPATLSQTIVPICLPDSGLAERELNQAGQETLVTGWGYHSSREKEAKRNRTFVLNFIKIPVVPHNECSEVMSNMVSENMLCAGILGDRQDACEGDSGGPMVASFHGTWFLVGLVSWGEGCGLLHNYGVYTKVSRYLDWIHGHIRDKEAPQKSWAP

[7] = target: T1, human activated protein C; test: Ki from competitive inhibition of APC cleavage against the literature Km (102 nM) of WT factor VIIIa for APC
Procedure: The amount of the A1336 (nM) generated over time was determined based on the amount of WT A1 substrate, calculated by subtracting the amount of the mutant A1 from the total amount of A1 subunit.
The rationale for this approach was that if proteinase binding to the mutant were unaffected, then it would efficiently compete with the WT substrate. Furthermore, since the mutant remains essentially uncleaved at the A1 site during a truncated time course, it would serve as an inhibitor of detected cleavage of the WT substrate.

[8] = target: T1, human activated protein C; test: competitive inhibition of APC-catalysed cleavage of WT factor VIIIa A1 subunit by the mutant (0-200 nM); Western blot densitometry, fit to competitive inhibition model with Km 102 nM
Procedure: Aliquots were taken at various time points (0-20 min) and subjected to SDS-PAGE. […] The amount of the A1336 (nM) generated over time was determined based on the amount of WT A1 substrate, calculated by subtracting the amount of the mutant A1 from the total amount of A1 subunit.
Factor VIII (130 nM) was activated by addition of 10-20 nM thrombin in 20 mM HEPES pH 7.2, 100 mM NaCl, 5 mM CaCl₂, 0.01 % Tween 20, and 100 μg/ml bovine serum albumin (Buffer A) and reactions were run at 37° C. Thrombin was inhibited after 2 min by the addition of 10-20 U/ml hirudin, and the resultant factor VIIIa was reacted with APC (2 or 40 nM) in the presence of 100 μM phospholipid vesicles. Aliquots were removed at the indicated times to assess residual factor VIIIa activity by factor Xa generation assay and proteolysis of subunits by Western blotting.

[9] = target: T1, human activated protein C; test: cell-based or functional assay; remark: listed apart in the source

| Molecule | rates of cleavage of factor VIII and the generation of factor VIIIa subunits [1] | rates of cleavage of factor VIII and the generation of factor VIIIa subunits [2] | rates of cleavage of factor VIII and the generation of factor VIIIa subunits [3] | rates of cleavage of factor VIII and the generation of factor VIIIa subunits [4] | rates of cleavage of factor VIII and the generation of factor VIIIa subunits [5] | Inactivation (nM FVIIIa/min/nM APC) [6] [nM FVIIIa/min/nM APC] | fold Ki less than the Km for WT substrate [7] [fold] | Ki [8] [nM] | fold reduction of inactivation rate compared to WT factor VIIIa [9] [fold] |
| --- | --- | --- | --- | --- | --- | --- | --- | --- | --- |
| α-thrombin | indistinguishable from that for WT factor VIII | indistinguishable from that for WT factor VIII | indistinguishable from that for WT factor VIII | indistinguishable from that for WT factor VIII | indistinguishable from that for WT factor VIII | – | – | – | – |
| 336(P4-P3′)562 factor VIIIa mutant (other, residues 333-339 replaced by residues 559-565; also called fully substituted P4-P3′ mutant) chain 1: ATRRYYLGAVELSWDYMQSDLGELPVDARFPPRVPKSFPFNTSVVYKKTLFVEFTVHLFNIAKPRPPWMGLLGPTIQAEVYDTVVITLKNMASHPVSLHAVGVSYWKASEGAEYDDQTSQREKEDDKVFPGGSHTYVWQVLKENGPMASDPLCLTYSYLSHVDLVKDLNSGLIGALLVCREGSLAKEKTQTLHKFILLFAVFDEGKSWHSETKNSLMQDRDAASARAWPKMHTVNGYVNRSLPGLIGCHRKSVYWHVIGMGTTPEVHSIFLEGHTFLVRNHRQASLEISPITFLTAQTLLMDLGQFLLFCHISSHQHDGMEAYVKVDSCPEEVDQRGNQNEEAEDYDDDLTDSEMDVVRFDDDNSPSFIQIR chain 2: SVAKKHPKTWVHYIAAEEEDWDYAPLVLAPDDRSYKSQYLNNGPQRIGRKYKKVRFMAYTDETFKTREAIQHESGILGPLLYGEVGDTLLIIFKNQASRPYNIYPHGITDVRPLYSRRLPKGVKHLKDFPILPGEIFKYKWTVTVEDGPTKSDPRCLTRYYSSFVNMERDLASGLIGPLLICYKESVDQRGNQIMSDKRNVILFSVFDENRSWYLTENIQRFLPNPAGVQLEDPEFQASNIMHSINGYVFDSLQLSVCLHEVAYWYILSIGAQTDFLSVFFSGYTFKHKMVYEDTLTLFPFSGETVFMSMENPGLWILGCHNSDFRNRGMTALLKVSSCDKNTGDYYEDSYEDISAYLLSKNNAIEPR chain 3: SFQKKTRHYFIAAVERLWDYGMSSSPHVLRNRAQSGSVPQFKKVVFQEFTDGSFTQPLYRGELNEHLGLLGPYIRAEVEDNIMVTFRNQASRPYSFYSSLISYEEDQRQGAEPRKNFVKPNETKTYFWKVQHHMAPTKDEFDCKAWAYFSDVDLEKDVHSGLIGPLLVCHTNTLNPAHGRQVTVQEFALFFTIFDETKSWYFTENMERNCRAPCNIQMEDPTFKENYRFHAINGYIMDTLPGLVMAQDQRIRWYLLSMGSNENIHSIHFSGHVFTVRKKEEYKMALYNLYPGVFETVEMLPSKAGIWRVECLIGEHLHAGMSTLFLVYSNKCQTPLGMASGHIRDFQITASGQYGQWAPKLARLHYSGSINAWSTKEPFSWIKVDLLAPMIIHGIKTQGARQKFSSLYISQFIIMYSLDGKKWQTYRGNSTGTLMVFFGNVDSSGIKHNIFNPPIIARYIRLHPTHYSIRSTLRMELMGCDLNSCSMPLGMESKAISDAQITASSYFTNMFATWSPSKARLHLQGRSNAWRPQVNNPKEWLQVDFQKTMKVTGVTTQGVKSLLTSMYVKEFLISSSQDGHQWTLFFQNGKVKVFQGNQDSFTPVVNSLDPPLLTRYLRIHPQSWVHQIALRMEVLGCEAQDLY | – | – | – | – | – | 0.8 | ~3 | 36 | – |
| 336(P4-P2)562 factor VIIIa mutant (other) chain 1: ATRRYYLGAVELSWDYMQSDLGELPVDARFPPRVPKSFPFNTSVVYKKTLFVEFTVHLFNIAKPRPPWMGLLGPTIQAEVYDTVVITLKNMASHPVSLHAVGVSYWKASEGAEYDDQTSQREKEDDKVFPGGSHTYVWQVLKENGPMASDPLCLTYSYLSHVDLVKDLNSGLIGALLVCREGSLAKEKTQTLHKFILLFAVFDEGKSWHSETKNSLMQDRDAASARAWPKMHTVNGYVNRSLPGLIGCHRKSVYWHVIGMGTTPEVHSIFLEGHTFLVRNHRQASLEISPITFLTAQTLLMDLGQFLLFCHISSHQHDGMEAYVKVDSCPEEVDQRMKNNEEAEDYDDDLTDSEMDVVRFDDDNSPSFIQIR chain 2: SVAKKHPKTWVHYIAAEEEDWDYAPLVLAPDDRSYKSQYLNNGPQRIGRKYKKVRFMAYTDETFKTREAIQHESGILGPLLYGEVGDTLLIIFKNQASRPYNIYPHGITDVRPLYSRRLPKGVKHLKDFPILPGEIFKYKWTVTVEDGPTKSDPRCLTRYYSSFVNMERDLASGLIGPLLICYKESVDQRGNQIMSDKRNVILFSVFDENRSWYLTENIQRFLPNPAGVQLEDPEFQASNIMHSINGYVFDSLQLSVCLHEVAYWYILSIGAQTDFLSVFFSGYTFKHKMVYEDTLTLFPFSGETVFMSMENPGLWILGCHNSDFRNRGMTALLKVSSCDKNTGDYYEDSYEDISAYLLSKNNAIEPR chain 3: SFQKKTRHYFIAAVERLWDYGMSSSPHVLRNRAQSGSVPQFKKVVFQEFTDGSFTQPLYRGELNEHLGLLGPYIRAEVEDNIMVTFRNQASRPYSFYSSLISYEEDQRQGAEPRKNFVKPNETKTYFWKVQHHMAPTKDEFDCKAWAYFSDVDLEKDVHSGLIGPLLVCHTNTLNPAHGRQVTVQEFALFFTIFDETKSWYFTENMERNCRAPCNIQMEDPTFKENYRFHAINGYIMDTLPGLVMAQDQRIRWYLLSMGSNENIHSIHFSGHVFTVRKKEEYKMALYNLYPGVFETVEMLPSKAGIWRVECLIGEHLHAGMSTLFLVYSNKCQTPLGMASGHIRDFQITASGQYGQWAPKLARLHYSGSINAWSTKEPFSWIKVDLLAPMIIHGIKTQGARQKFSSLYISQFIIMYSLDGKKWQTYRGNSTGTLMVFFGNVDSSGIKHNIFNPPIIARYIRLHPTHYSIRSTLRMELMGCDLNSCSMPLGMESKAISDAQITASSYFTNMFATWSPSKARLHLQGRSNAWRPQVNNPKEWLQVDFQKTMKVTGVTTQGVKSLLTSMYVKEFLISSSQDGHQWTLFFQNGKVKVFQGNQDSFTPVVNSLDPPLLTRYLRIHPQSWVHQIALRMEVLGCEAQDLY | – | – | – | – | – | 0.5 | – | – | 6 to 11 |
